Target: T1, human CD3 on cells (human, UniProt P07766 23-207)
T1 construct: CD3 is a complex of several subunits on the cell; also called CD3 on Jurkat cells; CD3 on Jurkat NFAT reporter cells
Assay: flow cytometry on Jurkat NFAT cells, PE-labelled anti-human Fc secondary antibody
Protocol: Binding to CD3 on the human reporter T-cell line Jurkat NFAT was determined by FACS for the optimized CD3 binder “CD3ₒₚₜ” and the original CD3 binder “CD3orig”, both in human IgG₁ format with P329G L234A L235A (“PGLALA”, EU numbering) mutations in the Fc region (SEQ ID NOs 12 and 14 (CD3orig) and SEQ ID NOs 13 and 14 (CD3ₒₚₜ)).
Jurkat-NFAT reporter cells (GloResponse Jurkat NFAT-RE-luc2P; Promega #C5176501) are a human acute lymphatic leukemia reporter cell line with a NFAT promoter, expressing human CD3. The cells were cultured in RPMI1640, 2g/1 glucose, 2 g/l NaHCO₃, 10% FCS, 25 mM HEPES, 2 mM L-glutamine, 1×NEAA, 1×sodium-pyruvate at 0.1-0.5 mio cells per ml. A final concentration of 200 μg per ml hygromycin B was added whenever cells were passaged.
For the binding assay, Jurkat NFAT cells were harvested, washed with PBS and resuspended in FACS buffer. The antibody staining was performed in a 96-well round bottom plate. Therefore 100'000 to 200'000 cells were seeded per well. The plate was centrifuged for 4 min at 400×g and the supernatant was removed. The test antibodies were diluted in FACS buffer and 20 μl of the antibody solution were added to the cells for 30 min at 4° C. […] Before measurement the cells were resuspended in 200 μl FACS buffer and then analyzed by flow cytometry using a BD Canto II device.

T1 sequence (P07766 23-207 limits assumed): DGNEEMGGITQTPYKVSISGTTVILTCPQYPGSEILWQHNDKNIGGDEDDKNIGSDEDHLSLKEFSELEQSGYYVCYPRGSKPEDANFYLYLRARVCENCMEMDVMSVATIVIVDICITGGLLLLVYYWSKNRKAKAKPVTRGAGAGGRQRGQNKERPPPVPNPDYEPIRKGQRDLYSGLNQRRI

| Binder | EC50 (read off the curve) |
| --- | --- |
| CD3opt human IgG1 PGLALA (antibody, V domains shown, Human IgG1 format with P329G L234A L235A (PGLALA) in the Fc; also called CD3opt IgG) VH: EVQLLESGGGLVQPGGSLRLSCAASGFQFSSYAMNWVRQAPGKGLEWVSRIRSKYNNYATYYADSVKGRFTISRDDSKNTLYLQMNSLRAEDTAVYYCVRHTTFPSSYVSYYGYWGQGTLVTVSS VL: QAVVTQEPSLTVSPGGTVTLTCGSSTGAVTTSNYANWVQEKPGQAFRGLIGGTNKRAPGTPARFSGSLLGGKAALTLSGAQPEDEAEYYCALWYSNLWVFGGGTKLTVLR | ~0.4 nM |
| CD3orig human IgG1 PGLALA (antibody, V domains shown, Human IgG1 format, stated to carry P329G L234A L235A (PGLALA) in the Fc; also called CD3orig IgG) VH: not shown VL: QAVVTQEPSLTVSPGGTVTLTCGSSTGAVTTSNYANWVQEKPGQAFRGLIGGTNKRAPGTPARFSGSLLGGKAALTLSGAQPEDEAEYYCALWYSNLWVFGGGTKLTVLR | ~0.8 nM |

Reference: patent publication US20240132590A1 (Hoffmann-La Roche, published 2024)
